This series deals with the molecule itself. Description: SDS-resistant oligomers on SDS-PAGE immunoblot of the immunoprecipitate; anti-myc immunoprecipitate of the Mid51/Fis1 complex from HeLa lysate heated 20 min at 55°C, 4-20% Tris-Glycine SDS-PAGE; SDS-resistant complexes detected with anti-myc (Mid51 species) or anti-Flag (Fis1 species); species normalized to monomer. (In general: In western blotting, separated proteins are transferred to a membrane and probed.)

Where “and” joins values, the source holds several entries; their conditions need not be identical. Identical values can stand only once.

B1: myc-tagged human Mid51 (WT) (natural protein, UniProt Q9NQG6 1-463, looked up)
chain: MAGAGERKGKKDDNGIGTAIDFVLSNARLVLGVGGAAMLGIATLAVKRMYDRAISAPTSPTRLSHSGKRSWEEPNWMGSPRLLNRDMKTGLSRSLQTLPTDSSTFDTDTFCPPRPKPVARKGQVDLKKSRLRMSLQEKLLTYYRNRAAIPAGEQARAKQAAVDICAELRSFLRAKLPDMPLRDMYLSGSLYDDLQVVTADHIQLIVPLVLEQNLWSCIPGEDTIMNVPGFFLVRRENPEYFPRGSSYWDRCVVGGYLSPKTVADTFEKVVAGSINWPAIGSLLDYVIRPAPPPEALTLEVQYERDKHLFIDFLPSVTLGDTVLVAKPHRLAQYDNLWRLSLRPAETARLRALDQADSGCRSLCLKILKAICKSTPALGHLTASQLTNVILHLAQEEADWSPDMLADRFLQALRGLISYLEAGVLPSALNPKVNLFAELTPEEIDELGYTLYCSLSEPEVLLQT
notes: Mid51 (MIEF1), human, outer mitochondrial membrane protein; plasmid generated using VectorBuilder; Seen as monomer, dimer, tetramer and HMW species on the IP immunoblot; also called MIEF1; WT Mid51; source: HeLa cells, transfected for 24 h, in lysate
B1: the stoichiometry N (commonly a count of units in the complex or per binding partner) is 2 and 4.

B2: myc-tagged human Mid51(Y240N) (natural protein, UniProt Q9NQG6 1-463, looked up)
chain: MAGAGERKGKKDDNGIGTAIDFVLSNARLVLGVGGAAMLGIATLAVKRMYDRAISAPTSPTRLSHSGKRSWEEPNWMGSPRLLNRDMKTGLSRSLQTLPTDSSTFDTDTFCPPRPKPVARKGQVDLKKSRLRMSLQEKLLTYYRNRAAIPAGEQARAKQAAVDICAELRSFLRAKLPDMPLRDMYLSGSLYDDLQVVTADHIQLIVPLVLEQNLWSCIPGEDTIMNVPGFFLVRRENPENFPRGSSYWDRCVVGGYLSPKTVADTFEKVVAGSINWPAIGSLLDYVIRPAPPPEALTLEVQYERDKHLFIDFLPSVTLGDTVLVAKPHRLAQYDNLWRLSLRPAETARLRALDQADSGCRSLCLKILKAICKSTPALGHLTASQLTNVILHLAQEEADWSPDMLADRFLQALRGLISYLEAGVLPSALNPKVNLFAELTPEEIDELGYTLYCSLSEPEVLLQT
notes: Mid51 (MIEF1), human, variant Y240N linked to dominant optic atrophy; plasmid generated using VectorBuilder; source: HeLa cells, transfected for 24 h, in lysate
As for B2, the “stoichiometry N” value was 2 and 4.

Values taken from paper PMC9437119 (The Journal of Cell Biology, 2022).
